# Test results: article PMC11045787, “Disordered clock protein interactions and charge blocks turn an hourglass into a persistent circadian oscillator” (Nature Communications, 2024)
# Where no end group is shown, it is not given here.
# T1: FRQ-interacting RNA Helicase (FRH), a.a. 100-1106, with 6x His-tag (N. crassa, UniProt Q1K502 100-1106)
# T1 construct: The preparation was only about 30% FRH; the other proteins were left in on purpose; also called FRHΔ100; E. coli expressed FRH; source: E. coli BL21 (DE3), Ni-NTA eluate, de-salted and buffer-exchanged to PBS (~30% FRH by Coomassie gel); not shown: His6, N-terminal, kept
# T1 sequence (looked up): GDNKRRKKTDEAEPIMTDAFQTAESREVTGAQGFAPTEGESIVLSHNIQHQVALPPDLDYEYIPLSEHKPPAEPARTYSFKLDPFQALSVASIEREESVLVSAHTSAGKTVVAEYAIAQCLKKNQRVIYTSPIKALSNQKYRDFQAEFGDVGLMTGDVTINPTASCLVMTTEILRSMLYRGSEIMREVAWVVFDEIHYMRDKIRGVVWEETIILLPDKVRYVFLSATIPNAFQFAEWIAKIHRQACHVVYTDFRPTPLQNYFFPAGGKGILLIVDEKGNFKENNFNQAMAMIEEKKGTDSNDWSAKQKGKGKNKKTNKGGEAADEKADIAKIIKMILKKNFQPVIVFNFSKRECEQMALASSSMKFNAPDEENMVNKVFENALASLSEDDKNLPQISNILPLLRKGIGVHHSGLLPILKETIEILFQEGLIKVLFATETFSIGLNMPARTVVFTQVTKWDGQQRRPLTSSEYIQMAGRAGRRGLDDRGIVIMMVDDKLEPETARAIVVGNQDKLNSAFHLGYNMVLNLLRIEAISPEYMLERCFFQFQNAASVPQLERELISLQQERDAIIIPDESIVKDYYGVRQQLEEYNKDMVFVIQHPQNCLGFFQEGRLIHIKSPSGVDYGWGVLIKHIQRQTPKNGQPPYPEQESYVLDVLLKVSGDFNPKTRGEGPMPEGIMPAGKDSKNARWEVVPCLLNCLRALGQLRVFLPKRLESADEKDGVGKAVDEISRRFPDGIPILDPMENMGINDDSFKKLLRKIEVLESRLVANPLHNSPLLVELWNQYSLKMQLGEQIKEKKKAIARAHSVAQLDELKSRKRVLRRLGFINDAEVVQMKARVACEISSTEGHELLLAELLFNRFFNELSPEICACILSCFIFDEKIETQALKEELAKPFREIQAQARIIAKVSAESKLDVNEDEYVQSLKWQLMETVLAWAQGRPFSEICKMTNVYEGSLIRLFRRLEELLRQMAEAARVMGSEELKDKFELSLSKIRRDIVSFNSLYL
# B1: FRQ peptide MTDKEKKKLVVRRLE (near the FCD-1 region) (peptide)
# peptide: Ac-MTDKEKKKLVVRRLE
# notes: Made from C- to N-terminus on cellulose; printed as a peptide-cellulose stock; source: synthetic peptide (Fmoc, on cellulose disks, spotted on nitrocellulose-coated slides)
# Biological target: T1, FRQ-interacting RNA Helicase (FRH), …
# Test: peptide or protein array; LOCATE Library II: rationally designed FRQ peptides (parents, scrambles, truncations, substitutions) spotted on slides; ~100 nM FRH in solution, room temperature, PBS pH 7.0; read with anti-His and chemiluminescence; FRH preparation ~30% pure
# Conditions: both partners purified
binder,measurement,value
B1,binding result,binds
